This data set can be described thus: yeast display, Sf9 membrane polyspecificity reagent, FACS + sequencing; frameworks hold sequencing errors. Summed up:
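Nanobodies came from a synthetic yeast display library in Saccharomyces cerevisiae BJ5465, induced with galactose for 36–48 hours and stained for 1 hour at 4 °C with 10% biotinylated, detergent-solubilized Sf9 membrane reagent. Cells were enriched on streptavidin microbeads and then FACS-sorted, with low and high (top ~1%) gates set on anti-HA fluorescence for expression and streptavidin fluorescence for reagent binding. Each polyreactivity label reflects the gate a clone came from. Genes were amplified by colony PCR, sequenced by MiSeq 2 × 250 and filtered by CDR length.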
Regarding “QVQLVESGGGLVQAGGSLRLSCAASGSIFYGYTMGWYRQEPGKERELVAAIRKSGGSTNYADSVKGRFTISRDNAKNNVYLQMNSLKPEDTAVYYCAAAYYRGRGYYWGQGTQVTVSS”, the “polyreactivity (PSR sort gate)” value is listed as “high polyreactivity”.
Consider “QFQLVESGGGLVQAGGSLRLSCAASGSIFRGTAMGWYRQAPGKERELVAAINKSGGSTYYADSVKGRFTISRDNAKNTVYLQMNSLKPEDTAVYYCAARGYFWSSYKYDYWGQGTEVTVSS”, for which the “polyreactivity (PSR sort gate)” value is given as “high polyreactivity”.
As to “QVQLVESGGGLVQAGGSLRLSCAASGSTFVRYAMGWDRQAPGTEGSWVAAISVDGDSTYYADSVKGRFTISRDNAKNTVYFQLNSLKPEDTAVYYCNVPLWDYYPRFPLHDYWGQGTQVTVSA”, the “polyreactivity (PSR sort gate)” value was “low polyreactivity”.
The same measure for “QVQLVESGGGLVQAGVILRLSCAASGSTIGVNAMGWYRQPPAKERELVAAISLGGGRTYYADSVKGRFTISRDNAKNTVNLQMNCLKPEDTAVYYCNTDFGARMGYWGQGTQVTVSS”: “high polyreactivity”.
Then “QVQHVESGGGLVQAGGSLRLSCAASGRTFVTNAKGWYRQAPGKERELVAAISSSGGSTYYADSVKGRFTISRDNAKNTVYLQMNSLKPEDTAVYYCATDRYVTPRLRFDYWGQGTQVTVSS”, with “low polyreactivity”.
Then “QVQLVESGGGLVQAGGSLRLSCAASGSTFNWNAMGWYRQAPGTERELVAAISKSGGTTYYADSVKGRFTISRDNAKNTVYFQMNSLKPEDTAVYYCAAVRRYHSYPDGGYWGQGTQVTVSS”, with “high polyreactivity”; and “QVQLVESGGGLVQAGGSLRLTCAASGYTFNYYAKGWYRQAPGKERELVAAIDWSDGTTYYADSVKGRFTISPDYAKNTVYLQMNSLKPEDTAVYYCAASLSQSEYDYWGQGTLVTVSS”, with “low polyreactivity”; and “QVQLVESGGGLVQAGGSLRLSCAASGFIFQGYARGWYRQAPGKERELVATISKSGGSTYYADSVKGRFTISRDTAKNTVYLQMTSLKPEDTAVYYCNARPGQSGARFGYWGQGTQVTVSS”, with “high polyreactivity”.
Consider “QVQLVESGGGLVQAGGSLRLSCAASGSTFHTYTMGWYRPAPGKERELVAGISRSGGSTYYAESVKGRFTISRDNAKNTVYLQMNSLKPEATAVYYCNALSSKTDTYDYWGQGTQVTVSS”, for which the “polyreactivity (PSR sort gate)” value is “high polyreactivity”.
Then “QVQLVESGGGLVQAGGSLRLSCAASGTTFVYYAMVWYRQAPGKERYLVAAITWNGGSTYYADSVKGRFTISRDNAKNTVYFQMNSLKPEDTAVYYCNAAFRAGAVYGYYWGQGTQVTVSS”, with “high polyreactivity”.
The same measure for “QVQLVESGGGLVQPGGSLRLSCAASGRTIERNTMGWYRQAPGKERELFAAISYDGGSTYYADSVKGRFTISRDNAKNTVYLQMNSLKPEDTAVYYCNAGGSEIYRSPFDYWGQGTEVTVSS”: “low polyreactivity”; for “QVQLVESGGGLVQAGGSLRLSCAASGSIFKKYAKGWYIQAPGKERELVAAISKSGGSTYYADSVKGRFTISRDNAKTTVYLQMNSLKPEDTAVYYCAAAAGGSAYWDYDYWGQGTQVTVSS”: “low polyreactivity”.
The same measure for “QVQHVESGGGLVQAGGSLRLSCPASGSIFARYAMGWYRQAPGKERELVAAITSGGITNYADSVMGRFTISRDNAKNTVYLQMISLNPEDTAVYYCAARRSGRVRYDYWGQGTQVTVSS”: “high polyreactivity”; for “QVQLVESGGGLVQAGGSLRLSCAASGSIFRPYAMGWYRQAPGKERELVATINQSGSSTYYADSVKGRFTISRDNAKNTVYLQKNSLKPEDTAVYYCAVVYTYHGYTYDYWGQGTQVTVSS”: “low polyreactivity”; for “QVQLVESGGGLVQAGGSLRLSCAASGRIIGFNAMGWYRQAPGKEMELVASIRTTGGSTRYADSVKGRFTISRDNAKNTVYLQMNSLKREDTAVYYCAARWGKTLWQYNYWGQGTQVTVSS”: “high polyreactivity”.
With “QVQLVESGGGLVQAGGSLRLSCAASGRIFVYNVMGWYRQAPGKERELVAAISWGTGSTYADSVKGRFTISRDNAKNTVYLQMNSLKPEDTAVYYCAADSFIPPYDHWGQGTQVTVSS”, the “polyreactivity (PSR sort gate)” value is recorded as “low polyreactivity”.
Then “QVQLVESGGGLVQAGGSLRLSCAASGSTFSFYAMGWYRQAPGKERELVAAIDSGGRTKYADSVKGRFTISRDNAKNTVYLLMNSLKPEDTAVYYCAAVFRGWWLYDYWGQGTQVTVSS”, with “low polyreactivity”; and “QVQLVESGGGLVQAGGSLRLSCAASGSTFWYYAMGWYRQAPGKERELVADITYSGVSTYYADSVKGRFTISRDNAKNTVYLQMNSLKPEDTAVYYCNADWGSVNGYSGYYYWGQGTQVTVSS”, with “low polyreactivity”; and “QVQLVESGGCLVQAGGSLRLSCAASGRIFYRYAMGWSRQAPGKVRELVATISWSGGSTYYAHSVKGRFTISRDNAKYTVYLQLNSLKPEDTAVYYCNAAYGNVSRVYYLIEHDYWGQGTQVTVSS”, with “high polyreactivity”.
The same measure for “QVQHVESGGGLVQGGGSLRLSCAASGSTFYAYAKGWYRQARGKERELVAVITSSGSTYYADSVKGRFTISRDNAKNTDYLQMNSLKAEDTAVYYCAAKRLSQSRRTQYRTRYQPMYYWGQGTQVTVSS”: “high polyreactivity”.
Regarding “QVQLVESGGGLVQAGGSLRLRCAASGSTIRCYAMGWYRQAPGKERELVAAIRRGGSTYYADSVKGRFTISRDNAKNTVYLQKNSLKPEVTAVYYCAAEPGYYSRQDYRVYRLYYWGQGTQVTVSS”, the “polyreactivity (PSR sort gate)” value is “high polyreactivity”.
For the sequence “QVQLVESGGGLVQAGGSLRLSCAASGIIFQFYAMVWYRQAPGKERELVAAISRSGGITHYADSVKGRFTISRDNAKNTVYLQMNILKPEDTAVYYCATRGTRSYFRTFYYWGQGTQVTVSS”, the “polyreactivity (PSR sort gate)” value is “high polyreactivity”.
The same measure for “QVQLVESGGGLVQAGGSLSLSCAASGITLYWYAMRWYIQAPGKERELVATINWSGGSTYYADSVKGRFTISRDNAKNTVYLQMNSLKPEDTAVYYCNVDYSDEGMGYWGQGTQVTVSS”: “low polyreactivity”; for “QVQLVESGGGLVQAGGSLRLSCAASGRTFGTYAMGWYRQAPGKERELVAAISTRDGSTYYADSVKGRFTISRDNAKNTVYLQMNSLKPEDTAVYYCNATWSVPSGQYDYWGQGTQVTVSS”: “low polyreactivity”.
Then “QVQLVESGGGIVQAGGSLRLSCAASGFIFDSYAMGWYRQAPGKERELVAAITTSGGRTYYADSVKGRFTISRDNAKNTVYLQMNSLKPEDTAVYYCAAKYTARWGFDYWGQGTQVTVSS”, with “high polyreactivity”; and “QVHLVESGGRLVKAGGSLRLSCPASGYITTKYAMGWYRQAPGKEMELVAAIRYSGTSTYYADSVKGRFTISRDNATNTVYLQMNSLKPEDTAVYYCNTRRYVRTTKYDYWGQGTQVTVSS”, with “high polyreactivity”.
Then “QVQLVESGGGLVQAGGSLRLSCAASGRIFYYYAMGWSRQAPGKERELVAAITRRGGSTYYADSVKGRFTISRDNAKNTVYLQMNSLKPEDPADYYCAKPDRTGWLDGEYWGQGTQVTVSS”, with “low polyreactivity”; and “QVQLVESGGGLVQAGGSLRLSCAASGLIIWLYTMGWYRQAPGKERELVAAIDWSGGSTYYADSVKGRFTISRDNAKNTVYLQMNSLKPEDTAVYYCAADPEPSYRFDYWGQGTQVTVSS”, with “low polyreactivity”.
For the sequence “QVQLVESGGGSLRLSCAASGLTFGGYTMGWIRQAPGKERELVAAISSSDSTNYADSVKGRFTISRDNAKNTVYVQMNSLKPEDTALYSCSADSGQWSRYSSFGDEGDSWGQGTQVTVSS”, the “polyreactivity (PSR sort gate)” value is on record as “low polyreactivity”.
Then “QVQLVESGGGLVQAGGSLRLSSAASGRTFTVNAMGSYRQAPGKERELVAAISQRGASTYYADSVKGRFTISRDNAKNTVYLQMNSLKPVDTAVYYCAAHLRYKYDYWGQGTQVTVSS”, with “high polyreactivity”.
Then “QVQLVESGGGLVQAGGSLRLSCAASGRIIYIYAMGWYIQAPGKERELVAAITASSGSTNYADSVKGRFTISRDNAKNTVYLQMNSLKPEDTAVYYCAAAPSRTLLRQSKYYYWGQGTQVTVSS”, with “low polyreactivity”.
The same measure for “QVQLVESGGGLVQAGGSLRLSCAACGRIFGGNTMGWYRQAPGKQRELVAAITVRGGSTYYADSVKGRFTISRDNAKNTVYLQMNSLKPEDTAVYYCAARRRIFPPRFGYWGQGTQVTVSS”: “high polyreactivity”; for “QVQLVESGGGLVQAGGSLRLSCAASGRTFQDNAMGWNRQAPGKETELVAAISWRGGSTNYADSVKGRFTISRDHAKNTVYLQMNSLKPEHTAVYYCNRDPRKYGKLDYWGQGTQVTVSS”: “low polyreactivity”; for “QVQLVESGGGLVQAGGSRRLSCAASGLIFVHYTMGWYRQATGKERELVAAITSSGGSTYYAYSVKGRFTISRDNAKNTVYLEMNSMKPEDTAVYYCATKSYSPTRTRFYYWGQGTQVTVSS”: “high polyreactivity”.
On to “QFQHVDSGGGLVQAGGSLRLSCADSGYTFPLYDMGRYRKAPGKVSELVADINIGGASTYYADSVKGRLTISRDNSKNSVYLQMNSLKPEDTAVYYCAKEYYDGYFPTFDYDYWGQGTQVTVSS”, for which the “polyreactivity (PSR sort gate)” value was “low polyreactivity”.
The same measure for “QVQLVESGGGLVQAGGSLLLICAASGFIFVPYAMGWYRQAPGKEREFVATITWRGDSTYYADSVKGRFTISRDNAKNTVYLQMNSLKPEDTAVYYCAVYPIRLWAYDYWGQGTQVTVSS”: “low polyreactivity”; for “QVQLVESGGGLVQAGGRLRLICAASGSTFVINDMGWYRQAPGKERELVASISWSGGDTYYADSVKGRFTISRDNAKNTVYLQMNSLKPEDTAVYYCNRVSPYGSYDYWGQGTQVTVSS”: “low polyreactivity”.
The same measure for “QVQLVESRGGLVQAGGSLRLSCAASGITFPRYAMGWYRPAPGKERELVARITSGGRTNYADSVKGRFTISRDNAKNTVYLQMNSLKPEDTAFYYCNAVAQSGRYDYWGQGTQVTVSS”: “high polyreactivity”.
“QVQLVESGGGLVQAGGSLRLSCAASGRIFYRNAMGWYRQAPGKERELVAAISSSTGSTYYADSVKGRFTISRDNAKNTVYLQMNSLKPEDTAVYYCNTARNRARYYYWGQGTQVTVSS”: the “polyreactivity (PSR sort gate)” value is listed as “high polyreactivity”.
The same measure for “QVQLVESGGCVVQAGGSLRLICAASGRTFGRNVMGWYRQAPGKEMELVAAISRSGGSTYYADSVKGRFTISRDNAKNTVYLQMNSLKPEDTAVYYCAAYSVGDYYWGQGTQVTVSS”: “high polyreactivity”.
For “QVQLVESGGGLVQAGGSLRLSCAASGRTFSGYVMGWYRQAPAKERELVAAIARNGGSRYYADSVKGRFTISRDKAKNTVYLQMNSLTPEDTAVYYCAADASCWRRHYYWGQGTQVTVSS”, the “polyreactivity (PSR sort gate)” value is listed as “high polyreactivity”.

The values are drawn from the nanobody polyreactivity screen of Harvey et al. (2022).
